From US20250242041A1 (Seagen, published 2025)

How the values were obtained:
[1] = biological target: T1, human αvβ6 on 293F:huβ6 cells (human, UniProt P06756 31-1048; P18564 22-788); experiment: competition binding on 293F cells
T1 chain 1: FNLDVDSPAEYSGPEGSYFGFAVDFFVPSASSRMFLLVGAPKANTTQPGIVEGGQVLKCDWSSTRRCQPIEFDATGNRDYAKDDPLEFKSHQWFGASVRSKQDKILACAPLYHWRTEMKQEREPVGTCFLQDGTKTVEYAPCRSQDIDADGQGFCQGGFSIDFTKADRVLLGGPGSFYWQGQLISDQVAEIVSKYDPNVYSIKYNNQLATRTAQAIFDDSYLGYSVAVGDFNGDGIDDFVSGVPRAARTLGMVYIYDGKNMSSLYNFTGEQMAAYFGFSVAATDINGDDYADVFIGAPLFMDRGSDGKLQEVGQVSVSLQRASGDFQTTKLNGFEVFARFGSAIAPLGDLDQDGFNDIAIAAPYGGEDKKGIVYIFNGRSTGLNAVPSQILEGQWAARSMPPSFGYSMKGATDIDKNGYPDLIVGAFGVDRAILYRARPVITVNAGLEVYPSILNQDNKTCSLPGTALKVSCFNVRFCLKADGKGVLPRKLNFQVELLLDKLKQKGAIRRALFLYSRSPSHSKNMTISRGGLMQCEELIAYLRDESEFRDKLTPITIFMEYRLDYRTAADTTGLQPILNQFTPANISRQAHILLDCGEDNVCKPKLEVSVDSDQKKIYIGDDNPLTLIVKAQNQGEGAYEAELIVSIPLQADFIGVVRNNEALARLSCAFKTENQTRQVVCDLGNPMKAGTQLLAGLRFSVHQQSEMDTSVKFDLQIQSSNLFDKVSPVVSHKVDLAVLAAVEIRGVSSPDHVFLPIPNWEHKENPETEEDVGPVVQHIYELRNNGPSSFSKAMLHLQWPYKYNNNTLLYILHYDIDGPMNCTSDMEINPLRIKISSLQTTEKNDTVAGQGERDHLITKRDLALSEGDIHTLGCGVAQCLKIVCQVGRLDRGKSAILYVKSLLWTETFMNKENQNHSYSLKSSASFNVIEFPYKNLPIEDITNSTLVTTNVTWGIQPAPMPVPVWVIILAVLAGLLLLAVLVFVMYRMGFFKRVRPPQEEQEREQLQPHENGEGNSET
T1 chain 2: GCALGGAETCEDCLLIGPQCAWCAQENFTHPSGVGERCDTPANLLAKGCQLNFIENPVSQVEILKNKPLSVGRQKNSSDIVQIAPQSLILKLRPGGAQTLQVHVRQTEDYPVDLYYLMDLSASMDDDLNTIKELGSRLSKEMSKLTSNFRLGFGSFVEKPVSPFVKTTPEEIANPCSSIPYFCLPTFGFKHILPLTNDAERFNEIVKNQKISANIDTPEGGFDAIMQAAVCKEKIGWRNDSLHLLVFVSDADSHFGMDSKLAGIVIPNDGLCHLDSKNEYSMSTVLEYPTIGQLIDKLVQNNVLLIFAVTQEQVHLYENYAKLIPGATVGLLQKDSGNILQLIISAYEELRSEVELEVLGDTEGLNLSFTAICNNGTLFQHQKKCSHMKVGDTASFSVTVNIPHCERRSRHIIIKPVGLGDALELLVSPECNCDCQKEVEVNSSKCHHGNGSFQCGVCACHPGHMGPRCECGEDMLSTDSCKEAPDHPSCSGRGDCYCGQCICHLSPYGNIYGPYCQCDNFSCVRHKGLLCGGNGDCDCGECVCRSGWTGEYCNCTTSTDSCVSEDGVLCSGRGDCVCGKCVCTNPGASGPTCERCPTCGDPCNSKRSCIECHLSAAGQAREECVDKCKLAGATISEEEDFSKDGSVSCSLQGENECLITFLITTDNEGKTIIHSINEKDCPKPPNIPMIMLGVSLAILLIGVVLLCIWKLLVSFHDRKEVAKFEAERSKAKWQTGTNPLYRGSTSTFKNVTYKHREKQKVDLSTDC

[2] = biological target: T1, human αvβ6 on 293F:huβ6 cells; experiment: competition binding on 293F cells; 2nM m2A2-AF647 competitor

- EC50 [1]: 3 nM
- EC50 [2]: 1 nM
B1: h2A2 HCLG humanized antibody (antibody, human IgG1, kappa, V domains shown)
VH: QFQLVQSGAEVKKPGASVKVSCKASGYSFTDYNVNWVRQAPGQGLEWIGVINPKYGTTRYNQKFKGRATLTVDKSTSTAYMELSSLRSEDTAVYYCTRGLNAWDYWGQGTLVTVSS
VL: DIQMTQSPSSLSASVGDRVTITCGASENIYGALNWYQQKPGKAPKLLIYGATNLEDGVPSRFSGSGSGRDYTFTISSLQPEDIATYYCQNVLTTPYTFGQGTKLEIKR
notes: Labelled with AlexaFluor-647 in the saturation assay; also called humanized 2A2 HCLG
